The record followed here is patent US20240301071A1 (Alector, published 2024).

For assay [1], the target named is human SIRPA W287A (V5-tagged library clone on HEK-293T cells) (human, UniProt P78324 31-504). Description: flow cytometry of Fab on HEK-293T cells expressing the mutant, normalised to wild-type SIRPA. As for the experimental part:
(§1) Epitope mapping of anti-SIRPA antibodies was performed using an alanine-scanning library created by shotgun mutagenesis of the human SIRPA cDNA sequence. […] Each of the residues representing the SIRPA extracellular domain (amino acids 31-374 of SEQ ID NO:1) was mutated, most to alanine, while alanine codons were mutated to serine.
(§2) The SIRPA mutant library clones, arrayed in a 384-well microplate, were transfected individually into HEK-293T cells and allowed to express for 22 hours. Antibodies were digested to generate Fabs, after which cells were incubated with Fabs diluted in 10% normal goat serum (NGS) (Sigma-Aldrich, St. Louis, MO). Prior to library screening, primary Fab concentrations were determined using an independent immunofluorescence titration curve against cells expressing wild type SIRPA to ensure that signals were within the linear range of detection. Fabs were detected using 7.5 μg/ml AlexaFluor488-conjugated secondary antibody (Jackson ImmunoResearch Laboratories, Westgrove, PA) in 10% NGS. Cells were washed twice with PBS and resuspended in Cellstripper (Cellgro, Manassas, VA) with 0.1% BSA (Sigma-Aldrich, St. Louis, MO). In some cases, higher stringency conditions were used, including increased pH, increased temperature, and increased dissociation time. Mean cellular fluorescence was detected using the Intellicyt high throughput flow cytometer (HTFC, Intellicyt, Albuquerque, NM). Fab reactivities against each mutant clone were calculated relative to wild-type SIRPA protein reactivity by subtracting the signal from mock-transfected controls, and normalizing to the signal from wild-type SIRPA transfected controls.
On the technique in general: In flow cytometry, cells or beads pass a laser one at a time.

Assay [2] deals with human SIRPA E297A (V5-tagged library clone on HEK-293T cells) (human, UniProt P78324 31-504). Described as above. As for the experimental part: as §1, §2
Sequence of human SIRPA E297A (V5-tagged library clone on HEK-293T cells) (P78324 31-504 E297A): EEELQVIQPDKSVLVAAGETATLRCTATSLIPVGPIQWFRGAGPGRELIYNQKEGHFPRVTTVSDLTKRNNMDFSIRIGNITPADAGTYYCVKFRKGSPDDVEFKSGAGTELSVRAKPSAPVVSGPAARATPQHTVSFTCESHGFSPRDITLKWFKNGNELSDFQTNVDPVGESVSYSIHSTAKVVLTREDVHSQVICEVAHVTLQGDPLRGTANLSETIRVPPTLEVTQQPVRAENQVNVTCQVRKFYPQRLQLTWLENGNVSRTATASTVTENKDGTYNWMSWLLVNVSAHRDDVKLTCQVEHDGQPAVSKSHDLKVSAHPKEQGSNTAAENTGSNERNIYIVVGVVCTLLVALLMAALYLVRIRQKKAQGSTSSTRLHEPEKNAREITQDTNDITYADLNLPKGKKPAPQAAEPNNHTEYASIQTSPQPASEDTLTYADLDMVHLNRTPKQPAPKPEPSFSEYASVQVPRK
Assay [3] has as its target human SIRPA W315A (V5-tagged library clone on HEK-293T cells) (human, UniProt P78324 31-504). Described as above. Here is the method:
as §1, §2

In assay [4] the target is human SIRPA V302A (V5-tagged library clone on HEK-293T cells) (human, UniProt P78324 31-504). The assay is described as above. As for the experimental part:
as §1, §2

In assay [5] the target is human SIRPA L285A (V5-tagged library clone on HEK-293T cells) (human, UniProt P78324 31-504). Described as above. Here is the method: as §1, §2
Sequence of human SIRPA L285A (V5-tagged library clone on HEK-293T cells) (P78324 31-504 L285A): as the sequence (P78324 31-504 E297A) above, with L255A, A267E counted along it
The target of assay [6] is human SIRPA R282A (V5-tagged library clone on HEK-293T cells) (human, UniProt P78324 31-504). Described as above. As for the experimental part:
as §1, §2

Assay [7] has as its target human SIRPA R295A (V5-tagged library clone on HEK-293T cells) (human, UniProt P78324 31-504). The description is as above. As for the experimental part: as §1, §2
Assay [8] addresses human SIRPA Q281A (V5-tagged library clone on HEK-293T cells) (human, UniProt P78324 31-504). The assay is described as above. As for the experimental part:
as §1, §2

For assay [9], the target named is human SIRPA Q284A (V5-tagged library clone on HEK-293T cells) (human, UniProt P78324 31-504). The description is as above. Here is the method: as §1, §2
Sequence of human SIRPA Q284A (V5-tagged library clone on HEK-293T cells) (P78324 31-504 Q284A): as the sequence (P78324 31-504 E297A) above, with Q254A, A267E counted along it
Assay [10] concerns the target human SIRPA G337A (V5-tagged library clone on HEK-293T cells) (human, UniProt P78324 31-504). The assay is described as above. Here is the method: as §1, §2
The target in assay [11] is T1, human SIRPA on human macrophages (primary monocyte-derived macrophages; U937 line) (human, UniProt P78324 31-504). Description: cell-based or functional assay.
T1 sequence (P78324 31-370): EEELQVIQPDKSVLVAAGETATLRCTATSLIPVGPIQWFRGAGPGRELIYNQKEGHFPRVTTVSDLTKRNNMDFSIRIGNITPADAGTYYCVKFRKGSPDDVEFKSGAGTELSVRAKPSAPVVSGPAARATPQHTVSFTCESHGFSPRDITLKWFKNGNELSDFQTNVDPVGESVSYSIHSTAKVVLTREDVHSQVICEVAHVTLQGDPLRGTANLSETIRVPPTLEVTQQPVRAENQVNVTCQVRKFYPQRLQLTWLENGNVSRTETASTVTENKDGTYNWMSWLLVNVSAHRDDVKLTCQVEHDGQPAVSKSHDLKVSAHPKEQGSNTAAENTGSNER
For assay [12], the target named is T1, human SIRPA on human macrophages …. Description: cell-based or functional assay. This is another data set of the same source.
The target in assay [13] is T2, human SIRPA v1 on BWZ cells (BWZ-huSIRPA) (human, UniProt P78324 31-504).
T2 construct: also called BWZ cells overexpressing human SIRPA; BWZ-huSIRPA v1 cells
T2 sequence (P78324 31-504): as the sequence (P78324 31-504 E297A) above, with A267E counted along it
Briefly: flow cytometry competition on BWZ-huSIRPA v1 cells, competitor: fluorophore-labelled reference m3F9. The source says:
IC50 values provide another comparison of relative affinity.

Assay [14] addresses T2, human SIRPA v1 on BWZ cells …. Briefly: flow cytometry titration on BWZ cells overexpressing huSIRPA, 4 C. Here is the method:
Receptor bound antibodies were detected by staining cells with anti-mouse IgG Fc APC or anti-human IgG PE secondary antibody. Serial dilutions of the monoclonal antibodies were added to 10⁵ BWZ cells overexpressing huSIRPA (BWZ-huSIRPA) and allowed to achieve binding equilibrium at 4° C. After addition of fluorescently labeled secondary antibody and brief washing steps, mean fluorescent intensity (MFI) values as a function of titrated antibody concentration was recorded via FACS analysis. Curves were fit using nonlinear regression analysis with Graphpad Prism 6 software.

The target in assay [15] is T3, histidine-tagged human SIRPA (Sino Biological) (human, UniProt P78324 31-370).
T3 construct: bought, soluble; also called histidine-tagged huSIRPA isoform 1; soluble SIRPA antigen; not shown: histidine tag
T3 sequence (P78324 31-370 limits assumed): as the sequence (P78324 31-370) above
Briefly: BLI (Octet RED96), antibody captured on anti-human IgG Fc sensor, His-tagged SIRPA in solution, 1:1 model. Here is the method: Affinity measurements for the anti-SIRPA antibodies were performed as follows. Bio-layer interferometry (BLI) data were collected on a Pall ForteBio Octet RED96 instrument. Data analysis was performed using ForteBio Data Analysis Software, version 9.0. Standard kinetic buffer (PBS, 0.100 BSA, 0.02% Tween-20, pH 7.2) was used for the assay and for preparing reagents. […] Varying concentrations (0-200 nM) of histidine-tagged human SIRPA (Sino Biological, Beijing, China) were then bound to the captured anti-SIRPA surface (300 s association time, 600 s dissociation time). The resulting BLI signal was obtained as the difference in response from the reference (2.5 μg/mL IgG+0 nM SIRPA) sensor. […] Multi-concentration kinetic analysis was performed using a 1:1 interaction model to extract association and dissociation rate constants (ka and kd, respectively) for each antibody. Binding affinity constants (KD) were calculated from the ratio kd/ka.
Best-fit traces from the resulting sensorgrams were analyzed to calculate association rate, dissociation rate, and affinity values.
In general terms: In BLI a coated tip is dipped into the sample, and binding shifts an interference pattern.

Sequence of human SIRPA Q281A (V5-tagged library clone on HEK-293T cells) (P78324 31-504 Q281A): as the sequence (P78324 31-504 E297A) above, with Q251A, A267E counted along it
Sequence of human SIRPA R282A (V5-tagged library clone on HEK-293T cells) (P78324 31-504 R282A): as the sequence (P78324 31-504 E297A) above, with R252A, A267E counted along it
Sequence of human SIRPA V302A (V5-tagged library clone on HEK-293T cells) (P78324 31-504 V302A): as the sequence (P78324 31-504 E297A) above, with A267E, V272A counted along it
Sequence of human SIRPA R295A (V5-tagged library clone on HEK-293T cells) (P78324 31-504 R295A): as the sequence (P78324 31-504 E297A) above, with R265A, A267E counted along it
Sequence of human SIRPA W287A (V5-tagged library clone on HEK-293T cells) (P78324 31-504 W287A): as the sequence (P78324 31-504 E297A) above, with W257A, A267E counted along it
Sequence of human SIRPA G337A (V5-tagged library clone on HEK-293T cells) (P78324 31-504 G337A): as the sequence (P78324 31-504 E297A) above, with A267E, G307A counted along it
Sequence of human SIRPA W315A (V5-tagged library clone on HEK-293T cells) (P78324 31-504 W315A): as the sequence (P78324 31-504 E297A) above, with A267E, W285A counted along it

B1: 3F9 Fab (Fab, V domains shown)
VH: EVKLVESGGGLVKPGGSLKLSCAASGFTFSSYAMSWVRQTPEKRLEWVATISDYGGSYTYYPDSVKGRFTISRDNAKYTLYLQMSSLRSEDTALYYCARPPYDDYYGGFAYWGQGTLVTVSA
VL: DIVLTQSPASLAVSLGQRATISCRASKSVSSSGYSYMHWYQQKPGQPPKLLIYLASNLESGVPARFSGSGSGTDFTLNIHPVEEEDAATYYCQHNRELPCTFGGGTKLEIK
On to B1, for which the “Binding Reactivity (% WT)” value was 125 % WT in assay [1]; 117 % WT in assay [2]; 117 % WT in [3]; 92.3 % WT in [4]; 107 % WT in assay [5]; 3.8 % WT in assay [6]. For the same molecule, the “Binding Reactivity (% WT)” value was found to be 121 % WT in [7], 151 % WT in [8], 3.3 % WT in assay [9] and 17.9 % WT in [10].

B2: 3F9-22 SELF (antibody, human IgG1, kappa)
heavy chain: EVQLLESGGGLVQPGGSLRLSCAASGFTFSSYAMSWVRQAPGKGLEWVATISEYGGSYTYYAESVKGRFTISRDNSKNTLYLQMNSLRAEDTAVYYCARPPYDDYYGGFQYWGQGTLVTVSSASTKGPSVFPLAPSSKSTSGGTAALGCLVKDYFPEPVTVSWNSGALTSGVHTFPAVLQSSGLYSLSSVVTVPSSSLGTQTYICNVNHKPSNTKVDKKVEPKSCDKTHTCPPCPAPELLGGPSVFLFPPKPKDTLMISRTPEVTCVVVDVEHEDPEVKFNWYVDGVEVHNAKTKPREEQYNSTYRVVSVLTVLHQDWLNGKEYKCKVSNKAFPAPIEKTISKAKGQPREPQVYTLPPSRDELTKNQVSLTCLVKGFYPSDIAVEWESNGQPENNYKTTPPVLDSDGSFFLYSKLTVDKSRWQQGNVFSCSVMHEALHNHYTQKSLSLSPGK
light chain: DIQLTQSPSSLSASVGDRVTITCRASKSVSSGGYSYMHWYQQKPGKAPKLLIYLASNLESGVPSRFSGSGSGTDFTLTISSVQPEDFATYYCQHNRELPVTFGQGTKLEIKRTVAAPSVFIFPPSDEQLKSGTASVVCLLNNFYPREAKVQWKVDNALQSGNSQESVTEQDSKDSTYSLSSTLTLSKADYEKHKVYACEVTHQGLSSPVTKSFNRGEC
On to B2, for which the “IC50 (read off the curve), SIRPA downregulation on primary human macrophages, Dnr. 517” value in assay [11] was roughly 0.1 nM.

B3: mAb 14.70.1 (antibody, human IgG4, V domains shown)
VH: EVQLLESGGGLVQPGGSLRLSCAASGFTFSSYAMSWVRQAPGKGLEWVSTISDYGGSYTYYADSVKGRFTISRDNSKNTLYLQMNSLRAEDTAVYYCAKPPYDDYYGGFAYWGQGTLVTVSS
VL: DIQMTQSPSSLSASVGDRVTITCRASKSVSSSGYSYMHWYQQKPGKAPKLLIYLASNLESGVPSRFSGSGSGTDFTLTISSLQPEDFATYYCQHNRELPCTFGQGTKLEIK
notes: also called h3F9 H1/L1; h3F9 IgG4
Usually IC50 stands for the concentration needed to halve the response being measured. Higher therefore signals a need for much substance. A word on the EC50: it is the midpoint of the concentration-response curve. In general, Kd refers to the concentration at which binding is half-saturated. Read a low Kd as higher affinity. Usually koff stands for a measure of how fast the partners let go of each other. High values mean fast dissociation, low ones slow dissociation. What is called kon is the second-order rate constant of association. For B3, the “IC50 (read off the curve), SIRPA downregulation on primary human macrophages, Dnr 409” value in assay [12] is roughly 0.2 nM. The molecule also registered an IC50 in assay [13] of 3.3 nM. The same molecule came in with an EC50 in assay [14] of 1.06 nM. In assay [15], this molecule displayed an equilibrium dissociation constant (Kd) of 19 nM, a koff of 0.002 s⁻¹ and a kon of 110000 M⁻¹ s⁻¹.

B4: 9C2 Fab (Fab, V domains shown)
VH: EFQLQQSGAELVKPGASVKISCKASGYSLTGYNMNWVKQSRGKSLEWIGNINPHYGSSTYNQNFKDKATLTVDKSSSAAYMQFNSLTSEDSAVYYCAREGYDGVFDYWGQGTTLTVSS
VL: QIVLSQSPAILSASPGEKVTMTCRASSSVSYMHWYQQKPGSSPKPWIYVTSNLASGVPTRFSGSGSGTSYSLTISRVEAEDAATYYCQQWSSNPRTFGGGTKLEIK
For B4, the “Binding Reactivity (% WT)” value in assay [1] was found to be 2.4 % WT; in [2], 5.3 % WT; in [3], 19 % WT; in [4], 4.9 % WT; in [5] it was 17.9 % WT; in assay [6], 4.7 % WT. Moreover, the “Binding Reactivity (% WT)” value in [7] came to 1.8 % WT; in assay [8], 14.1 % WT; in assay [9], 6.5 % WT; in assay [10], 36.3 % WT.
